Measured values as given in patent US20240092890A1 (JUNTENDO EDUCATIONAL FOUNDATION, published 2024).
Numbering of substitutions follows the chain as printed.

B1: Antibody 28 (bispecific antibody)
chain 1: QVTLKESGPVLVKPTETLTLTCTVSGYSITSDYAWNWIRQPPGKALEWLAYISYSGSTSYNPSLKSRLSITKDTSKSQVVLTMTNMDPVDTATYYCARDPPYYYGSWGQGTTVTVSSASTKGPSVFPLAPSSKSTSGGTAALGCLVKDYFPEPVTVSWNSGALTSGVHTFPAVLQSSGLYSLSSVVTVPSSSLGTQTYICNVNHKPSNTKVDKRVEPKSCGGGGSQVQLVQSGGGVVQPGRSLRLSCKASGYTFTRYTMHWVRQAPGKGLEWIGYINPSRGYTNYNQKVKDRFTISRDNSKNTAFLQMDSLRPEDTGVYFCARYYDDHYSLDYWGQGTPVTVSSGGGGSGGGGSGGGGSDIQMTQSPSSLSASVGDRVTITCSASSSVSYMNWYQQTPGKAPKRWIYDTSKLASGVPSRFSGSGSGTDYTFTISSLQPEDIATYYCQQWSSNPFTFGQGTKLQITRHHHHHH
chain 2: DVVMTQSPLSLPVTLGQPASISCKSSQSLLDSDGKTYLNWLQQRPGQSPRRLIYLVSKLDSGVPDRFSGSGSGTDFTLKISRVEAEDVGVYHCWQGTHFPYTFGGGTKVEIKRTVAAPSVFIFPPSDEQLKSGTASVVCLLNNFYPREAKVQWKVDNALQSGNSQESVTEQDSKDSTYSLSSTLTLSKADYEKHKVYACEVTHQGLSSPVTKSFNRGEC
notes: format not described
B2: Antibody 29 (bispecific antibody)
chain 1: QVQLVQSGAEVKKPGASVKVSCKASGYSFTGYYIHWVRQAPGQGLEWIGYISAYNGASSYNQKFKGRATFTVDTSISTAYMELSRLRSDDTAVYYCASSMDYWGQGTLVTVSSASTKGPSVFPLAPSSKSTSGGTAALGCLVKDYFPEPVTVSWNSGALTSGVHTFPAVLQSSGLYSLSSVVTVPSSSLGTQTYICNVNHKPSNTKVDKRVEPKSCGGGGSQVQLVQSGGGVVQPGRSLRLSCKASGYTFTRYTMHWVRQAPGKGLEWIGYINPSRGYTNYNQKVKDRFTISRDNSKNTAFLQMDSLRPEDTGVYFCARYYDDHYSLDYWGQGTPVTVSSGGGGSGGGGSGGGGSDIQMTQSPSSLSASVGDRVTITCSASSSVSYMNWYQQTPGKAPKRWIYDTSKLASGVPSRFSGSGSGTDYTFTISSLQPEDIATYYCQQWSSNPFTFGQGTKLQITRHHHHHH
chain 2: B1 chain 2 with R50K, G105Q, V109L
notes: format not described
B3: Antibody 9 (bispecific antibody)
chain: QVQLQQSGAELVKPGSSVKISCKASGYTFTRNFIHWIKQQPGNGLEWIGWIFPGDGDTEYNQKFNGKATLTADKSSSTAYMQLSSLTSEDSAVYFCARGNYNYEYFDYWGQGVMVTVSSGGGGSGGGGSGGGGSDIQMTQSPASLSASLGETVSIECLASEDIYSYLAWYQQKPGKSPQLLIFAANRLQDGVPSRFSGSGSGTQFSLKISGMQPEDEGDYFCLQGSKFPYTFGPGTKLELNGGGGSQVQLVQSGGGVVQPGRSLRLSCKASGYTFTRYTMHWVRQAPGKGLEWIGYINPSRGYTNYNQKVKDRFTISRDNSKNTAFLQMDSLRPEDTGVYFCARYYDDHYSLDYWGQGTPVTVSSGGGGSGGGGSGGGGSDIQMTQSPSSLSASVGDRVTITCSASSSVSYMNWYQQTPGKAPKRWIYDTSKLASGVPSRFSGSGSGTDYTFTISSLQPEDIATYYCQQWSSNPFTFGQGTKLQITRHHHHHH
notes: B3 VH-VL scFv and hOKT3 VH-VL scFv in one polypeptide, no Fc
B4: Antibody 23 (bispecific antibody)
heavy: QVQLQQSGAELVKPGSSVKISCKASGYTFTRNFIHWIKQQPGNGLEWIGWIFPGDGDTEYNQKFNGKATLTADKSSSTAYMQLSSLTSEDSAVYFCARGNYNYEYFDYWGQGVMVTVSSASTKGPSVFPLAPSSKSTSGGTAALGCLVKDYFPEPVTVSWNSGALTSGVHTFPAVLQSSGLYSLSSVVTVPSSSLGTQTYICNVNHKPSNTKVDKRVEPKSCHHHHHH
light: QVQLVQSGGGVVQPGRSLRLSCKASGYTFTRYTMHWVRQAPGKGLEWIGYINPSRGYTNYNQKVKDRFTISRDNSKNTAFLQMDSLRPEDTGVYFCARYYDDHYSLDYWGQGTPVTVSSGGGGSGGGGSGGGGSDIQMTQSPSSLSASVGDRVTITCSASSSVSYMNWYQQTPGKAPKRWIYDTSKLASGVPSRFSGSGSGTDYTFTISSLQPEDIATYYCQQWSSNPFTFGQGTKLQITRGGGGSDIQMTQSPASLSASLGETVSIECLASEDIYSYLAWYQQKPGKSPQLLIFAANRLQDGVPSRFSGSGSGTQFSLKISGMQPEDEGDYFCLQGSKFPYTFGPGTKLELNRTVAAPSVFIFPPSDEQLKSGTASVVCLLNNFYPREAKVQWKVDNALQSGNSQESVTEQDSKDSTYSLSSTLTLSKADYEKHKVYACEVTHQGLSSPVTKSFNRGEC
notes: B3 Fab with hOKT3 scFv fused to the light chain N-terminus
B5: Antibody 24 (bispecific antibody, human IgG1, kappa, L234A L235A)
heavy: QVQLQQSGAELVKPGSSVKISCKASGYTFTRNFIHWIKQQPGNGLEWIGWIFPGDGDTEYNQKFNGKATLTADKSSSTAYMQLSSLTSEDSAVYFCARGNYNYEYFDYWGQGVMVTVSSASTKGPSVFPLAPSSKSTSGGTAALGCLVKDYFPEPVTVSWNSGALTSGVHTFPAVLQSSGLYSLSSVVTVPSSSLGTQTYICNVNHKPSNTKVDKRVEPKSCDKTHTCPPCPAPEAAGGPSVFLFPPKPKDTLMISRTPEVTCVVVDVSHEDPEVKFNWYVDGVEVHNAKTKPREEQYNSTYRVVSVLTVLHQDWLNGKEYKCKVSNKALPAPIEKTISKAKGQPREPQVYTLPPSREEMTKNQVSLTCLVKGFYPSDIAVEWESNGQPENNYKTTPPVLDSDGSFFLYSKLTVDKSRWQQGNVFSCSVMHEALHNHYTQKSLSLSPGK
light: B4 light
notes: B3 IgG with hOKT3 scFv fused to the light chain N-terminus
B6: Antibody 26 (bispecific antibody)
heavy: QVQLVQSGGGVVQPGRSLRLSCKASGYTFTRYTMHWVRQAPGKGLEWIGYINPSRGYTNYNQKVKDRFTISRDNSKNTAFLQMDSLRPEDTGVYFCARYYDDHYSLDYWGQGTPVTVSSGGGGSGGGGSGGGGSDIQMTQSPSSLSASVGDRVTITCSASSSVSYMNWYQQTPGKAPKRWIYDTSKLASGVPSRFSGSGSGTDYTFTISSLQPEDIATYYCQQWSSNPFTFGQGTKLQITRGGGGSQVQLQQSGAELVKPGSSVKISCKASGYTFTRNFIHWIKQQPGNGLEWIGWIFPGDGDTEYNQKFNGKATLTADKSSSTAYMQLSSLTSEDSAVYFCARGNYNYEYFDYWGQGVMVTVSSASTKGPSVFPLAPSSKSTSGGTAALGCLVKDYFPEPVTVSWNSGALTSGVHTFPAVLQSSGLYSLSSVVTVPSSSLGTQTYICNVNHKPSNTKVDKRVEPKSCHHHHHH
light: B4 light
notes: B3 Fab with hOKT3 scFv fused to the N-termini of both the heavy and the light chain
B7: Antibody 27 (bispecific antibody)
heavy: QVQLQQSGAELVKPGSSVKISCKASGYTFTRNFIHWIKQQPGNGLEWIGWIFPGDGDTEYNQKFNGKATLTADKSSSTAYMQLSSLTSEDSAVYFCARGNYNYEYFDYWGQGVMVTVSSASTKGPSVFPLAPSSKSTSGGTAALGCLVKDYFPEPVTVSWNSGALTSGVHTFPAVLQSSGLYSLSSVVTVPSSSLGTQTYICNVNHKPSNTKVDKRVEPKSCGGGGSQVQLVQSGGGVVQPGRSLRLSCKASGYTFTRYTMHWVRQAPGKGLEWIGYINPSRGYTNYNQKVKDRFTISRDNSKNTAFLQMDSLRPEDTGVYFCARYYDDHYSLDYWGQGTPVTVSSGGGGSGGGGSGGGGSDIQMTQSPSSLSASVGDRVTITCSASSSVSYMNWYQQTPGKAPKRWIYDTSKLASGVPSRFSGSGSGTDYTFTISSLQPEDIATYYCQQWSSNPFTFGQGTKLQITRHHHHHH
light: B4 light
notes: B3 Fab with hOKT3 scFv at the heavy chain C-terminus and at the light chain N-terminus
B8: B3 chimeric antibody (antibody, human IgG1, kappa, L234A L235A)
heavy: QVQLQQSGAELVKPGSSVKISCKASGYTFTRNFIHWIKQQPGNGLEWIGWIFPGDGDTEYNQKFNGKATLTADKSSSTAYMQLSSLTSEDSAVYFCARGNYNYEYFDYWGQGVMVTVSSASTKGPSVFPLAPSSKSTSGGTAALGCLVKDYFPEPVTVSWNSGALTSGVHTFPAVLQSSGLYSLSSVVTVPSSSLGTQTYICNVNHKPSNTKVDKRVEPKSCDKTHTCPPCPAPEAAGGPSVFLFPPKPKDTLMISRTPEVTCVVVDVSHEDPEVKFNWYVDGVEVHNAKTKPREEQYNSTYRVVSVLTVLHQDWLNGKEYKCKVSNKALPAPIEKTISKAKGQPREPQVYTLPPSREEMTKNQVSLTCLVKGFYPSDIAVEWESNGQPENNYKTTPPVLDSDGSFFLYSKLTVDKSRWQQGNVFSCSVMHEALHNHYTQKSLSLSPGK
light: DIQMTQSPASLSASLGETVSIECLASEDIYSYLAWYQQKPGKSPQLLIFAANRLQDGVPSRFSGSGSGTQFSLKISGMQPEDEGDYFCLQGSKFPYTFGPGTKLELNRTVAAPSVFIFPPSDEQLKSGTASVVCLLNNFYPREAKVQWKVDNALQSGNSQESVTEQDSKDSTYSLSSTLTLSKADYEKHKVYACEVTHQGLSSPVTKSFNRGEC
notes: monospecific anti-mutant CALR antibody, no CD3 arm
B9: Antibody 14 (bispecific antibody, human IgG1, kappa, L234A L235A)
heavy: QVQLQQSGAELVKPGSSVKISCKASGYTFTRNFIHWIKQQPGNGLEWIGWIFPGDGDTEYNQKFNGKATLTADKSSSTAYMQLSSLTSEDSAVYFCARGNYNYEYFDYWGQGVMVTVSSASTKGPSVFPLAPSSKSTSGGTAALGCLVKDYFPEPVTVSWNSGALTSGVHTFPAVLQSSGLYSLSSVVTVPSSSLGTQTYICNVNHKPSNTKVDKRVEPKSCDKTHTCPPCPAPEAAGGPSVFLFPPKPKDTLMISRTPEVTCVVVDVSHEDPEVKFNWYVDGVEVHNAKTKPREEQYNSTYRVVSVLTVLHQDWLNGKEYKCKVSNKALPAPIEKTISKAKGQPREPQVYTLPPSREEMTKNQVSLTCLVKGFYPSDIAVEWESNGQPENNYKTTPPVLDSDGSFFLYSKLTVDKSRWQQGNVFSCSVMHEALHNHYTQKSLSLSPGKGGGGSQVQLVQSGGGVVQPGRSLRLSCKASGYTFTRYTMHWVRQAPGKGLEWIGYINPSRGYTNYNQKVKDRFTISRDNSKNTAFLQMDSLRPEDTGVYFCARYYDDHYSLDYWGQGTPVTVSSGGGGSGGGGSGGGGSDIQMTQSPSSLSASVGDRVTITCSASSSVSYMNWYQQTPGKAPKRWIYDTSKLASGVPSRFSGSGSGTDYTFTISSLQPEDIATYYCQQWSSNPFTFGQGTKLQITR
light: B8 light
notes: B3 IgG with hOKT3 scFv fused to the heavy chain C-terminus
B10: Antibody 13 (bispecific antibody, human IgG1, kappa, L234A L235A)
heavy 1: not shown
heavy 2: QVQLQQSGAELVKPGSSVKISCKASGYTFTRNFIHWIKQQPGNGLEWIGWIFPGDGDTEYNQKFNGKATLTADKSSSTAYMQLSSLTSEDSAVYFCARGNYNYEYFDYWGQGVMVTVSSASTKGPSVFPLAPSSKSTSGGTAALGCLVKDYFPEPVTVSWNSGALTSGVHTFPAVLQSSGLYSLSSVVTVPSSSLGTQTYICNVNHKPSNTKVDKRVEPKSCDKTHTCPPCPAPEAAGGPSVFLFPPKPKDTLMISRTPEVTCVVVDVSHEDPEVKFNWYVDGVEVHNAKTKPREEQYNSTYRVVSVLTVLHQDWLNGKEYKCKVSNKALPAPIEKTISKAKGQPREPQVCTLPPSREEMTKNQVSLSCAVKGFYPSDIAVEWESNGQPENNYKTTPPVLDSDGSFFLVSKLTVDKSRWQQGNVFSCSVMHEALHNHYTQKSLSLSPGKGGGGSQVQLVQSGGGVVQPGRSLRLSCKASGYTFTRYTMHWVRQAPGKGLEWIGYINPSRGYTNYNQKVKDRFTISRDNSKNTAFLQMDSLRPEDTGVYFCARYYDDHYSLDYWGQGTPVTVSSGGGGSGGGGSGGGGSDIQMTQSPSSLSASVGDRVTITCSASSSVSYMNWYQQTPGKAPKRWIYDTSKLASGVPSRFSGSGSGTDYTFTISSLQPEDIATYYCQQWSSNPFTFGQGTKLQITR
light: B8 light
notes: B3 IgG with knob-into-hole heavy chains, hOKT3 scFv fused to the C-terminus of one heavy chain

The binders below were run against T1, Ins 5 type mutant CALR protein on UT-7/TPO CALR Ins 5 cells (UniProt P27797 18-417) (assay: cell-based or functional assay).
T1 sequence (looked up): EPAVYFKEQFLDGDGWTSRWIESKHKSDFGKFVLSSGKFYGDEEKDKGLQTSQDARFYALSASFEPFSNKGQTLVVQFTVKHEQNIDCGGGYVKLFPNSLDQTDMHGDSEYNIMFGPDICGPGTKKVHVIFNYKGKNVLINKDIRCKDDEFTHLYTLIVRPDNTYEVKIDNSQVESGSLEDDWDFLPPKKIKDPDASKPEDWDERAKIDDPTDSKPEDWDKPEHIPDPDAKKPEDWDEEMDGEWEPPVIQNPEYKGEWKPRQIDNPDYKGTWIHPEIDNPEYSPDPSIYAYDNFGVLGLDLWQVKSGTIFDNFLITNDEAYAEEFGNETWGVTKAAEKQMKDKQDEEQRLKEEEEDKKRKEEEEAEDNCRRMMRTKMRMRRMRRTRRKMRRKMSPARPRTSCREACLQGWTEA

Row | Binder | EC50 of cytotoxic activity (calcein release, T-LAK effector cells)
1 | B1 | 5.43 nM
2 | B2 | 0.634 nM
3 | B3 | 1.53 nM
4 | B4 | 0.37 nM
5 | B5 | 0.138 nM
6 | B6 | 0.039 nM
7 | B7 | 0.036 nM
8 | B8 | > 10 nM
9 | B9 | 0.989 nM
10 | B10 | 4.47 nM

Target: T2, protein having an Fc region and a His-tag added to the N-terminus of SEQ ID NO: 1
T2 construct: also called mutant CALR protein (antigen of the BLItz measurement); not shown: Fc region and His-tag at the N-terminus
T2 chain: RRMMRTKMRMRRM
Experiment: BLItz biolayer interferometry, Fc/His-SEQ ID NO: 1 protein on the biosensor
Procedure: As another method, measurements were performed using the molecular interaction analysis system BLItz (ForteBio), which applies biolayer interferometry […]. Specifically, a protein having an Fc region and a His-tag added to the N-terminus of SEQ ID NO: 1 was immobilized at a concentration of 0.1 mg/mL using the Anti-Penta-HIS or ProteinA biosensor (ForteBio). Subsequently, the antibodies 1 to 114 made were prepared at a concentration of 500, 100, and 50 nM and reacted to acquire the dissociation constant.

Row | Kd | Binder
11 | 1480 µM | B1
12 | 5.7 µM | B2
13 | 0.00655 µM | B3
14 | 0.00679 µM | B4
15 | 0.000531 µM | B5
16 | 0.0123 µM | B6
17 | 0.0136 µM | B7
18 | < 1e-06 µM | B8
19 | < 1e-06 µM | B9
20 | < 1e-06 µM | B10
